B1: bacteriophage lambda gpE major capsid protein (natural protein, UniProt P03713 1-341, looked up)
chain: MSMYTTAQLLAANEQKFKFDPLFLRLFFRESYPFTTEKVYLSQIPGLVNMALYVSPIVSGEVIRSRGGSTSEFTPGYVKPKHEVNPQMTLRRLPDEDPQNLADPAYRRRRIIMQNMRDEELAIAQVEEMQAVSAVLKGKYTMTGEAFDPVEVDMGRSEENNITQSGGTEWSKRDKSTYDPTDDIEAYALNASGVVNIIVFDPKGWALFRSFKAVKEKLDTRRGSNSELETAVKDLGKAVSYKGMYGDVAIVVYSGQYVENGVKKNFLPDNTMVLGNTQARGLRTYGCIQDADAQREGINASARYPKNWVTTGDPAREFTMIQSAPLMLLADPDEFVSVQLA
B2: bacteriophage lambda gpNu3 scaffolding protein (natural protein, UniProt P03711-2 1-131, looked up)
chain: MTKETQSTTVSATASQADVTDVVPATEGENASAAQPDVNAQITAAVAAENSRIMGILNCEEAHGREEQARVLAETPGMTVKTARRILAAAPQSAQARSDTALDRLMQGAPAPLAAGNPASDAVNDLLNTPV

Experiments:
[1] = target: bacteriophage lambda gpNu3 scaffolding protein (bacteriophage lambda) (UniProt P03711); assay: AUC
[2] = target: the molecule itself; assay: SEC
[3] = target: B1; assay: SEC

## bacteriophage lambda gpNu3 scaffolding protein (from UniProt P03711-2 1-131) (natural protein)
[1]
  stoichiometry N: 2

## B1
[2]
  binding result: binds

## B2
[3]
  binding result: binds

— article PMC3247018 (Journal of molecular biology, 2011)
